# How the values were obtained:
# [1] = target: T1, PKC-βI (purified isoform) (Homo sapiens (Human), UniProt P05771 2-671); test: competitive ELISA on purified PKC-βI vs anti-PKC-βI Ab; PRE 50 µM
# T1 construct: also called PKC-beta I
# Procedure: (§1) Greiner 96 well ELISA plates were coated with the appropriate PKC isoform diluted in PBSN (PBS with Calcium/Magnesium+0.05% Sodium azide w/w). 50 μL/well at 250 ng/mL was used. Control wells contained PBSN only. Plates were incubated overnight at 4° C.
# (§2) The plates were washed 3 times with 200 μL of dH₂O per well, then 100 μL of blocking solution was added per well and the plate incubated for 1 h at 37° C. The washing steps with dH₂O were repeated and 50 μL of the appropriate PRE solution (PRE stock solution [20 mM in DMSO] diluted in PBSN) was added and the plate incubated for 1 h at room temperature.
# (§3) 50 μL of 1:1000 dilution of Alkaline Phosphatase (AP) conjugated antibody (anti-rabbit for all except zeta, which was anti-goat) was then added and the plate incubated for 1 h at room temperature. Washing with dH₂O was then repeated. Finally, 100 μL of pNPP solution in pNPP buffer (2 mM MgCl₂, 100 mM Sodium bicarbonate in water, pH 9.8) was added to all wells and incubated for 8 minutes for α, βI, βII ε, and ζ, or for 15-20 mins for […] (until sufficient coloration is observed). The reaction was stopped by addition of Stop solution (2N NaOH) and the absorbance at 405 nm was read on a Galaxy Plate reader.
# [2] = target: T2, PKC-δ (purified isoform) (Homo sapiens (Human), UniProt Q05655 1-676); test: competitive ELISA on purified PKC-δ vs anti-PKC-δ Ab; PRE 100 µM
# T2 construct: also called PKC-delta; PKCdelta
# Procedure: as §1, §2, §3
# [3] = target: T1, PKC-βI (purified isoform); test: competitive ELISA on purified PKC-βI vs anti-PKC-βI Ab; PRE 200 µM
# Procedure: as §1, §2, §3
# [4] = target: T3, PKC-α (endogenous, human cell lysates and cells) (human, UniProt P17252 2-672); test: anti-PKC-α immunofluorescence, V5E-transfected IMR-32 cells loaded with PRE (label on PKC-α and V5E); control with endocytosis reagent 113
# T3 construct: Endogenous protein of human cell lysates, on Western blot membranes (denatured) or in fixed cells; also called PKC-alpha; PKC-A
# Text: Neuroblastoma cells from the IMR-32 cell line were stably transfected with a vector containing the V5E sequence of PKC-α as outlined above in Example 13. The V5E sequence is part of the antigenic amino acid sequence that is used to raise the commercially available anti-PKC-α isoform-specific antibody.
# The peptides PRE 1, 2, 3, 4, 5, 6, 7, 8, 9, 10, 11, 12 and 13 (see Table 3) were incorporated into the transfected IMR-32 cells via pinocytic endocytosis (Molecular Probes) according to the supplier's recommendations. Following fixation and permeabilization, PKC-α was detected using an Alexa fluor secondary antibody (as described above in Example 8).
# [5] = target: T2, PKC-δ (purified isoform); test: competitive ELISA on purified PKC-δ vs anti-PKC-δ Ab; PRE 50 µM
# Procedure: as §1, §2, §3
# [6] = target: T4, PKC-ι (endogenous, human cell extracts) (human, UniProt P41743 2-596); test: Western-blot competition on cell extracts against the anti-PKC-ι primary antibody; band densitometry
# T4 construct: also called PKC-iota
# T4 sequence (looked up): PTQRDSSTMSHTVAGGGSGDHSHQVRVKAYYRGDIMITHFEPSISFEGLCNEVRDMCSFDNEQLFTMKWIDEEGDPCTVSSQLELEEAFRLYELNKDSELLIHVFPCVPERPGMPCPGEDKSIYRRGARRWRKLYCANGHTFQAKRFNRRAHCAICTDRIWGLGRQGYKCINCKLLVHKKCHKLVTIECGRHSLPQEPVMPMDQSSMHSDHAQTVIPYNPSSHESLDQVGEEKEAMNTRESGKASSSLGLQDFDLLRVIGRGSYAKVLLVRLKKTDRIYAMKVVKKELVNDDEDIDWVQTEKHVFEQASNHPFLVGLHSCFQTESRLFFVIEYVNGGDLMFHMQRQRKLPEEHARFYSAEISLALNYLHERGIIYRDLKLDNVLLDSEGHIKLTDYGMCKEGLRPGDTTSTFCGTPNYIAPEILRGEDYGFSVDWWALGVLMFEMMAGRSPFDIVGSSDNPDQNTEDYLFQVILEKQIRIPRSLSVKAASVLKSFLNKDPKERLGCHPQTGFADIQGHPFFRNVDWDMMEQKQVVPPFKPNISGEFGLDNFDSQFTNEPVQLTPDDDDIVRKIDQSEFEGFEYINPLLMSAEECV
# Procedure: Binding efficiency and specificity of the peptides PRE 2, 3, 4, 5, 6, 7, 8, 9, 10, 11, 12 and 13 (see Table 3) was also tested using cytoplasmic extracts from different cell lines expressing appropriate PKC isoforms as described for Example 1. Briefly, the protein cytoplasmic extracts were separated by electrophoresis and transferred onto nitrocellulose membranes by standard Western blotting procedures. The bands on the Western blots were detected with matching primary antibodies and alkaline phosphatase conjugated secondary antibody. The bands were then scanned and the relative density measurements obtained.
# This procedure to assess the binding characteristics of the PREs is based on competition binding of the PRE with the primary anti-isoform PKC specific antibodies. The lower the measured band density, the greater the binding of the PRE to the PKC isoform. The PREs were added at 10 and 20 times (10×, 20×) the primary antibody concentration, according to classical competition between antigenic peptide and primary antibody. The following cell lines (obtained from the ATCC) were used: H661—NCI human lung carcinoma NSCLC; MDAMB231—human highly invasive breast cancer cell line from pleural effusion; LS180—human colon adenocarcinoma; LnCAP—human prostate adenocarcinoma; CCD16Lu—human lung fibroblasts; Du145—human prostate carcinoma brain metastasis, and T24—human bladder carcinoma.
# [7] = target: T1, PKC-βI (purified isoform); test: competitive ELISA on purified PKC-βI vs anti-PKC-βI Ab; PRE 100 µM
# Procedure: as §1, §2, §3
# [8] = target: T2, PKC-δ (purified isoform); test: competitive ELISA on purified PKC-δ vs anti-PKC-δ Ab; PRE 200 µM
# Procedure: as §1, §2, §3
# [9] = target: T5, PKC-βII (purified isoform) (Homo sapiens (Human), UniProt P05771 2-621); test: competitive ELISA on purified PKC-βII vs anti-PKC-βII Ab; PRE 200 µM
# T5 construct: also called PKC-beta II
# Procedure: as §1, §2, §3
# [10] = target: T5, PKC-βII (purified isoform); test: summary grade, purified isoform ELISA
# [11] = target: T5, PKC-βII (purified isoform); test: competitive ELISA on purified PKC-βII vs anti-PKC-βII Ab; PRE 50 µM
# Procedure: as §1, §2, §3
# [12] = target: T5, PKC-βII (purified isoform); test: competitive ELISA on purified PKC-βII vs anti-PKC-βII Ab; PRE 100 µM
# Procedure: as §1, §2, §3
# T1 sequence (P05771 2-671 limits assumed): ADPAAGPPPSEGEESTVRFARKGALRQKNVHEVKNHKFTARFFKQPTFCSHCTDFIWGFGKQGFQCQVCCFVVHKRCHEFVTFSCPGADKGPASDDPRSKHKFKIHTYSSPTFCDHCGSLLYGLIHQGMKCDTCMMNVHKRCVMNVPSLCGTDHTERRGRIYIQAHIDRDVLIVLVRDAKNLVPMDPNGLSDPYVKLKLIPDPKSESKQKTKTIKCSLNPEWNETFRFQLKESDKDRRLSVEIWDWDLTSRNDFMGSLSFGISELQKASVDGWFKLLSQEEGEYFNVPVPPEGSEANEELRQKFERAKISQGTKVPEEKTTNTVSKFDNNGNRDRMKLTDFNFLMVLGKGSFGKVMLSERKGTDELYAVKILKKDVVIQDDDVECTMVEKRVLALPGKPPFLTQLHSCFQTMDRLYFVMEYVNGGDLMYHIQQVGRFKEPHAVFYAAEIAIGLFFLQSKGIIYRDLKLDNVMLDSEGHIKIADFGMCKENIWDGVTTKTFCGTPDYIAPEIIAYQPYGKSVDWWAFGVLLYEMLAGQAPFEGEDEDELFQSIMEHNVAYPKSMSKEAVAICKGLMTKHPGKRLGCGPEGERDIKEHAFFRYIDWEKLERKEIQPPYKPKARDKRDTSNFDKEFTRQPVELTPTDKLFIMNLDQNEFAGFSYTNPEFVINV
# T2 sequence (Q05655 whole entry, stated change not applied, canonical isoform): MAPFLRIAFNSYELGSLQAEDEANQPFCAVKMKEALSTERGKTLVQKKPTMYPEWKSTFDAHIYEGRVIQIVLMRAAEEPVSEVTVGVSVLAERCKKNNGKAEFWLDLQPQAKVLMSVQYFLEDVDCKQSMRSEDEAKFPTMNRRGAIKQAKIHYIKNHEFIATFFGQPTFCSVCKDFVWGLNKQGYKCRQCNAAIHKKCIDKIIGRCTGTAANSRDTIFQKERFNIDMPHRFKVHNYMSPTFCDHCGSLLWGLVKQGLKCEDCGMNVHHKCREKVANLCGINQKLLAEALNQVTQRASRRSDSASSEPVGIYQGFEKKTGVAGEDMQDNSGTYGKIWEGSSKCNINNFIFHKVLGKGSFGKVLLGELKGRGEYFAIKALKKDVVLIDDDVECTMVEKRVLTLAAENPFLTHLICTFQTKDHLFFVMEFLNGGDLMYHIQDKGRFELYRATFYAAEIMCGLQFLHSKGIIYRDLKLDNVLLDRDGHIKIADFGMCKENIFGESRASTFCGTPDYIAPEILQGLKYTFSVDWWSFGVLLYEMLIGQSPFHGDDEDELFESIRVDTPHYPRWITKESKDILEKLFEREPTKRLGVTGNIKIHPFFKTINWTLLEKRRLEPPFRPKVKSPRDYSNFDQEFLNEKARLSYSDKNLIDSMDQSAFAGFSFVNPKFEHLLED
# T5 sequence (P05771 other isoform, or with tags, fused parts or gaps limits assumed): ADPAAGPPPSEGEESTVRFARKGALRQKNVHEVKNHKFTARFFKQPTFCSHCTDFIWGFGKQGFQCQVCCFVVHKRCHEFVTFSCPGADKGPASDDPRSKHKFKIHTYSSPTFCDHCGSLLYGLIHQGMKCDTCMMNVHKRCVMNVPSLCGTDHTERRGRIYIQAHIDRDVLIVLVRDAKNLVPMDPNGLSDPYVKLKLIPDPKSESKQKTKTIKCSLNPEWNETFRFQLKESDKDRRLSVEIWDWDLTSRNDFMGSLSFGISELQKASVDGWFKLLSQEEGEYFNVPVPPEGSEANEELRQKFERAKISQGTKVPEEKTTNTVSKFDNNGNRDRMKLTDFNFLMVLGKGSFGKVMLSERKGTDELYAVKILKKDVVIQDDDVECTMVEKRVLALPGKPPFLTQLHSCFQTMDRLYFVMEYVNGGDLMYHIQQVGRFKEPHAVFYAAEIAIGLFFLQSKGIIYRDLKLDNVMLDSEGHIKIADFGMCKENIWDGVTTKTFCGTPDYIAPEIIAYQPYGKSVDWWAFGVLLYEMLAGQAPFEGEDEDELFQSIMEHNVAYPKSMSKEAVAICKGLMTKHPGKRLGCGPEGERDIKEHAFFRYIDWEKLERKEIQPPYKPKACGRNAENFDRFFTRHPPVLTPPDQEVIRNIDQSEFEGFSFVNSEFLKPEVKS
binder,measurement,setting,value
"RRKKGGKDFVVKR (Synthetic peptide, solid phase synthesis; termini given free; also called peptide PRE 1) [PRE 1]",binding capacity (%),[1],19.8%
same,binding capacity (%),[2],45.2%
same,binding capacity (%),[3],13.4%
same,Relative Fluorescence Intensity,[4],79
same,binding capacity (%),[5],35.7%
same,binding result,[6],no binding (tested: 20X the primary antibody concentration)
same,binding capacity (%),[7],13.9%
same,binding capacity (%),[8],49.4%
same,binding capacity (%),[9],0%
same,binding result,[10],no binding (tested: 200 µM)
same,binding capacity (%),[11],0%
same,binding capacity (%),[12],0%
